Target: CXCR2/CXCR4 chimera 4442 (human, UniProt P61073)
Assay: FACS, 293T cells expressing CXCR4 variants

Binder | binding to cells expressing the variant (+%)
48-IgG1 (antibody, V domains shown) VH: QVQLVQSGGGVVLPGRSLRLSCVASGFTFRRYGMHWVRQAPGKGLEWVSLISYDGSKTFYGESVKGRFTISRDNSKNTLYLQMNSLRAEDTAVYYCARATVTTDGYYYMDVWGKGTTVTVSS VL: not shown | 91.9%
33-IgG1 (antibody, V domains shown) VH: QVTLKESGGGVVQPGRSLRLSCAASGFTFTNYGLHWVRQAPGKGLEWVAVISHDGTKKYYADSVKGRFTISRDSSENTLYLQMNSLRPEDSALYYCARDGGYCSGGRCYSYGMDVWGQGTTVTVSS VL: QSVLTQPPSASGTPGQRVTISCSGSRSNIGSNTVNWYQQLPGTAPKLLIYTNNQRPSGVPDRFSGSKSGTSASLAITGLQAEDEADYYCLSFDSSLTSYVFGTGTKVTVLG | 99.5%
